The supplement of paper PMC10567573

B1: SPSB4 (parent)
chain: LDMDEGTLSFIVDGQYLGVAFRGL
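Also: lentivirally expressed fusions sorted by FACS into six bins by GFP to DsRed ratio, PSI derived from sequencing read proportions per bin multiplied by bin number.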

Variants of: B1
Assay: protein stability index of a GFP-peptide fusion (GPS, HEK-293T) (PSI 1-6); higher = more stable
Conditions: c terminus: a fixed tail appended
LDMDEGTLSHIVDGQYLGVAFRGL gave a protein stability index of 2.14. With LDMDEGTLSYIVDGQYLGVAFRGL the protein stability index was 1.89. LDMDEGTLSCIVDGQYLGVAFRGL showed a protein stability index of 2.49. With LDMDEGTLSPIVDGQYLGVAFRGL the protein stability index was 2.3. Work on LDMDEGTLSMIVDGQYLGVAFRGL yielded a protein stability index of 1.73. LDMDEGTLSGIVDGQYLGVAFRGL showed a protein stability index of 1.5. LDMDEGTLSVIVDGQYLGVAFRGL gave a protein stability index of 2.38. Variant LDMDEGTLSNIVDGQYLGVAFRGL has a protein stability index of 2.27. With LDMDEGTLSLIVDGQYLGVAFRGL the protein stability index was 1.76. Work on LDMDEGTLSWIVDGQYLGVAFRGL yielded a protein stability index of 2.33. With LDMDRGTLSFIVDGQYLGVAFRGL the protein stability index was 1.9. Variant LDMDHGTLSFIVDGQYLGVAFRGL has a protein stability index of 3.53. With LDMDQGTLSFIVDGQYLGVAFRGL the protein stability index was 2.7. With LDMDSGTLSFIVDGQYLGVAFRGL the protein stability index was 2.79. Variant LDMDGGTLSFIVDGQYLGVAFRGL has a protein stability index of 1.85. Variant LDMDIGTLSFIVDGQYLGVAFRGL has a protein stability index of 3.72. In the case of LDMDFGTLSFIVDGQYLGVAFRGL, the protein stability index is reported as 2.59. Variant LDMDVGTLSFIVDGQYLGVAFRGL has a protein stability index of 3.95. Work on LDMDPGTLSFIVDGQYLGVAFRGL yielded a protein stability index of 1.42. Work on LDMDLGTLSFIVDGQYLGVAFRGL yielded a protein stability index of 2.51. Variant LDMDYGTLSFIVDGQYLGVAFRGL has a protein stability index of 2.27. With LDMDWGTLSFIVDGQYLGVAFRGL the protein stability index was 3.01. Variant LDMDMGTLSFIVDGQYLGVAFRGL has a protein stability index of 2.56. LDMDDGTLSFIVDGQYLGVAFRGL gave a protein stability index of 2.77. For LDMDNGTLSFIVDGQYLGVAFRGL, the protein stability index was 3.71. LDMDCGTLSFIVDGQYLGVAFRGL gave a protein stability index of 3.63. Work on LDLDEGTLSFIVDGQYLGVAFRGL yielded a protein stability index of 3.27. LDVDEGTLSFIVDGQYLGVAFRGL showed a protein stability index of 2.67. Variant LDADEGTLSFIVDGQYLGVAFRGL has a protein stability index of 2.05. Work on LDGDEGTLSFIVDGQYLGVAFRGL yielded a protein stability index of 2.09. In the case of LDKDEGTLSFIVDGQYLGVAFRGL, the protein stability index is reported as 2.9. LDRDEGTLSFIVDGQYLGVAFRGL showed a protein stability index of 2.68. LDCDEGTLSFIVDGQYLGVAFRGL showed a protein stability index of 2.17. LDPDEGTLSFIVDGQYLGVAFRGL gave a protein stability index of 1.74. For LDIDEGTLSFIVDGQYLGVAFRGL, the protein stability index was 1.33. Work on LDFDEGTLSFIVDGQYLGVAFRGL yielded a protein stability index of 2.33. Work on LDDDEGTLSFIVDGQYLGVAFRGL yielded a protein stability index of 1.59. With LDNDEGTLSFIVDGQYLGVAFRGL the protein stability index was 1.52. Work on LDHDEGTLSFIVDGQYLGVAFRGL yielded a protein stability index of 2.39. LDEDEGTLSFIVDGQYLGVAFRGL showed a protein stability index of 1.42. Variant LDQDEGTLSFIVDGQYLGVAFRGL has a protein stability index of 2.68. LDSDEGTLSFIVDGQYLGVAFRGL gave a protein stability index of 1.77. LYMDEGTLSFIVDGQYLGVAFRGL gave a protein stability index of 2.74. LDMIEGTLSFIVDGQYLGVAFRGL gave a protein stability index of 3.21. LDMPEGTLSFIVDGQYLGVAFRGL showed a protein stability index of 1.66. LDMSEGTLSFIVDGQYLGVAFRGL gave a protein stability index of 2.52. LDMHEGTLSFIVDGQYLGVAFRGL showed a protein stability index of 3.59. LDMREGTLSFIVDGQYLGVAFRGL gave a protein stability index of 2.39. LDMAEGTLSFIVDGQYLGVAFRGL showed a protein stability index of 1.71. For LDMMEGTLSFIVDGQYLGVAFRGL, the protein stability index was 3.51. Work on LDMQEGTLSFIVDGQYLGVAFRGL yielded a protein stability index of 2.4. With LDMLEGTLSFIVDGQYLGVAFRGL the protein stability index was 4.51. For LDMCEGTLSFIVDGQYLGVAFRGL, the protein stability index was 1.66. Work on LDMNEGTLSFIVDGQYLGVAFRGL yielded a protein stability index of 1.93. In the case of LDMGEGTLSFIVDGQYLGVAFRGL, the protein stability index is reported as 2.73. Variant LDMVEGTLSFIVDGQYLGVAFRGL has a protein stability index of 2.95. For LDMKEGTLSFIVDGQYLGVAFRGL, the protein stability index was 2.15. In the case of LDMTEGTLSFIVDGQYLGVAFRGL, the protein stability index is reported as 2.45. In the case of LDMDEGHLSFIVDGQYLGVAFRGL, the protein stability index is reported as 1.94. Variant LDMDEGPLSFIVDGQYLGVAFRGL has a protein stability index of 1.64. For LDMDEGNLSFIVDGQYLGVAFRGL, the protein stability index was 1.23. In the case of LDMDEGLLSFIVDGQYLGVAFRGL, the protein stability index is reported as 1.99. LDMDEGALSFIVDGQYLGVAFRGL showed a protein stability index of 2.34. Variant LDMDEGELSFIVDGQYLGVAFRGL has a protein stability index of 1.31. LDMDEGMLSFIVDGQYLGVAFRGL showed a protein stability index of 2.53. In the case of LDMDEGWLSFIVDGQYLGVAFRGL, the protein stability index is reported as 3.12. LDMDEGGLSFIVDGQYLGVAFRGL gave a protein stability index of 2.27. With LDMDEGFLSFIVDGQYLGVAFRGL the protein stability index was 1.81. In the case of LDMDEGKLSFIVDGQYLGVAFRGL, the protein stability index is reported as 2.03. With LDMDEGDLSFIVDGQYLGVAFRGL the protein stability index was 2.11. LDMDEGYLSFIVDGQYLGVAFRGL gave a protein stability index of 2.04. In the case of LDMDEGQLSFIVDGQYLGVAFRGL, the protein stability index is reported as 3.36. LDMDEGVLSFIVDGQYLGVAFRGL gave a protein stability index of 1.86. LDMDEGRLSFIVDGQYLGVAFRGL showed a protein stability index of 1.75. LDMDEGSLSFIVDGQYLGVAFRGL showed a protein stability index of 3.54. With LDMDEGILSFIVDGQYLGVAFRGL the protein stability index was 2.18. Variant LDMDEGTLSFIVDAQYLGVAFRGL has a protein stability index of 2.58. LDMDEGTLSFIVQGQYLGVAFRGL showed a protein stability index of 2.77. In the case of LDMDEGTLSFIVWGQYLGVAFRGL, the protein stability index is reported as 2.55. In the case of LDMDEGTLSFIVMGQYLGVAFRGL, the protein stability index is reported as 2.37. In the case of LDMDEGTLSFIVGGQYLGVAFRGL, the protein stability index is reported as 2.8. LDMDEGTLSFIVYGQYLGVAFRGL showed a protein stability index of 3.11. Work on LDMDEGTLSFIVLGQYLGVAFRGL yielded a protein stability index of 2.94. Variant LDMDEGTLSFIVKGQYLGVAFRGL has a protein stability index of 2.61. LDMDEGTLSFIVFGQYLGVAFRGL gave a protein stability index of 3.41. Work on LDMDEGTLSFIVCGQYLGVAFRGL yielded a protein stability index of 3.49. Work on LDMDEGTLSFIVPGQYLGVAFRGL yielded a protein stability index of 1.82. With LDMDEGTLSFIVNGQYLGVAFRGL the protein stability index was 2.39. In the case of LDMDEGTLSFIVVGQYLGVAFRGL, the protein stability index is reported as 2.9. Variant LDMDEGTLSFIVEGQYLGVAFRGL has a protein stability index of 2.83. LDMDEGTLSFIVSGQYLGVAFRGL showed a protein stability index of 2.61. LDMDEGTLSFIVTGQYLGVAFRGL gave a protein stability index of 3.32. Work on LDMDEGTLSFIVIGQYLGVAFRGL yielded a protein stability index of 2.6. With LDMDEGTLSFIVHGQYLGVAFRGL the protein stability index was 2.94.
